# Measurements as given in patent US20150086555A1.
# Like-named read-outs stand apart in the source and are kept apart here.
# Tests used:
# Settings in all cases: remark: other sources report otherwise
# [1] = molecular target: T1, recombinant soluble homotrimeric HA of A/Hong Kong/2108/03 (H9N2) (Influenza A virus A/HK/2108/2003(H9N2)); experiment: trimeric HA microarray, transfection supernatant set 4
# [2] = molecular target: T2, recombinant soluble homotrimeric HA of A/Anhui/1/05 (H5N1) (Influenza A virus A/Anhui/1/2005(H5N1))
# [3] = molecular target: T3, recombinant soluble homotrimeric HA of A/California/4/09 (H1N1) (Influenza A virus A/California/04/2009(H1N1))
# [4] = molecular target: T4, recombinant soluble homotrimeric HA of A/Egypt/3300-NAMRU3/08 (H5N1) (Influenza A virus A/Egypt/3300-NAMRU3/2008(H5N1))
# [5] = molecular target: recombinant soluble homotrimeric HA of A/Hong Kong/1073/99 (H9N2) (Influenza A virus A/Hong Kong/1073/99 (H9N2))
# [6] = molecular target: recombinant soluble homotrimeric HA of A/Hong Kong/156/97 (H5N1) (Influenza A virus A/Hong Kong/156/97 (H5N1))
# [7] = molecular target: T5, recombinant soluble homotrimeric HA of A/Indonesia/5/05 (H5N1) (Influenza A virus A/Indonesia/5/2005(H5N1))
# [8] = molecular target: T6, recombinant soluble homotrimeric HA of A/Japan/305/57 (H2N2) (Influenza A virus A/Japan/305/1957(H2N2))
# [9] = molecular target: T7, recombinant soluble homotrimeric HA of A/Netherlands/219/03 (H7N7) (Influenza A virus A/Netherlands/219/03(H7N7))
# [10] = molecular target: recombinant soluble homotrimeric HA of A/Solomon Islands/3/06 (H1N1) (Influenza A virus A/Solomon Islands/3/2006(H1N1))
# [11] = molecular target: T8, recombinant soluble homotrimeric HA of A/South Carolina/1/18 (H1N1) (Influenza A virus A/South Carolina/1/18 (H1N1))
# [12] = molecular target: T9, recombinant soluble homotrimeric HA of A/Vietnam/1203/04 (H5N1) (Influenza A virus A/VietNam/1203/2004(H5N1))
# [13] = molecular target: recombinant soluble homotrimeric HA of A/Wisconsin/67/05 (H3N2) (Influenza A virus A/Wisconsin/67/2005(H3N2))
# [14] = molecular target: T10, recombinant soluble homotrimeric HA of A/chicken/Vietnam/NCVD-016/08 (H5N1) (Influenza A virus A/chicken/Vietnam/NCVD-016/2008(H5N1))
# [15] = molecular target: recombinant soluble homotrimeric HA of A/duck/Yangzhou/02/05 (H8N4) (Influenza A virus A/duck/Yangzhou/02/2005(H8N4))
# [16] = molecular target: recombinant soluble homotrimeric HA of A/northern shoveler/California/HKWF115/07 (H6) (Influenza A virus A/northern shoveler/California/HKWF115/2007(H6N1))
# [17] = molecular target: T11, recombinant soluble homotrimeric HA of A/swine/Ontario/01911-2/99 (H4N6) (Influenza A virus A/Swine/Ontario/01911-2/99 (H4N6))
# [18] = molecular target: T2, recombinant soluble homotrimeric HA of …; experiment: trimeric HA microarray, transfection supernatant set 1
# [19] = molecular target: T3, recombinant soluble homotrimeric HA of …; experiment: as above
# [20] = molecular target: T4, recombinant soluble homotrimeric HA of …; experiment: as above
# [21] = molecular target: T1, recombinant soluble homotrimeric HA of …; experiment: as above
# [22] = molecular target: T5, recombinant soluble homotrimeric HA of …; experiment: as above
# [23] = molecular target: T6, recombinant soluble homotrimeric HA of …; experiment: as above
# [24] = molecular target: T7, recombinant soluble homotrimeric HA of …; experiment: as above
# [25] = molecular target: T8, recombinant soluble homotrimeric HA of …; experiment: as above
# [26] = molecular target: T9, recombinant soluble homotrimeric HA of …; experiment: as above
# [27] = molecular target: T10, recombinant soluble homotrimeric HA of …; experiment: as above
# [28] = molecular target: T1, recombinant soluble homotrimeric HA of …; experiment: trimeric HA microarray, transfection supernatant set 3
# [29] = molecular target: T11, recombinant soluble homotrimeric HA of …; experiment: trimeric HA microarray, transfection supernatant set 1
Binder,Trimeric HA Binding: RLU [1],Trimeric HA Binding: RLU [18],Trimeric HA Binding: RLU [19],Trimeric HA Binding: RLU [20],Trimeric HA Binding: RLU [22],Trimeric HA Binding: RLU [23],Trimeric HA Binding: RLU [24],Trimeric HA Binding: RLU [25],Trimeric HA Binding: RLU [26],Trimeric HA Binding: RLU [27],also measured
"TCN-534 (5249_B02) (antibody, V domains shown) VH: QVQLVQSGAEVKKPGSSVKVSCRESGGTFNGYTITWVRQAPGQGLEWMGGIIPMMGTVNYAQKLQGRVTITTDYFTKTAYMDLNNLRSEDTAMYYCVKIRYTGQQLLWGQGTLVTVSS VL: DIQMTQSPSTLSASIGDRVTITCRASQSIASWLAWYQQKPGKAPKLLIYEAVNLESGVPSRFSGSGSGTDFTLTISSLQPDDFATYFCQHYGTISQTFGGGTKVEIK",27 RLU,,,,,,,,,,
"TCN-563 (5237_B21) (antibody, V domains shown) VH: QVQLAQSGAEVKRPGSSVKVSCTASGGIFRKNAISWVRQAPGQGLEWMGGIIAVFNTANYAQKFQGRVKITADESGNTAYMELSSLRSDDTAVYYCASHPKYFYGSGSYPDFWGQGTLVTVSS VL: QSALTQPRSVSGSPGQSVTISCTGSSSDVGASNSVSWYQQHPGKAPKLVIYDVTERPSGVPHRFSGSKSGNTASLTVSGLQPEDEADYFCCAYGGKYLVVFGGGTKVTVL",,,,,,,,,,,Trimeric HA Binding: RLU [2]: 7520 RLU; Trimeric HA Binding: RLU [3]: 25900 RLU; Trimeric HA Binding: RLU [4]: 21600 RLU; Trimeric HA Binding: RLU [5]: 4600 RLU; Trimeric HA Binding: RLU [6]: 17700 RLU; Trimeric HA Binding: RLU [7]: 23200 RLU; Trimeric HA Binding: RLU [8]: 12400 RLU; Trimeric HA Binding: RLU [9]: 1690 RLU; Trimeric HA Binding: RLU [10]: 21000 RLU; Trimeric HA Binding: RLU [11]: 16300 RLU; Trimeric HA Binding: RLU [12]: 27700 RLU; Trimeric HA Binding: RLU [13]: 314 RLU; Trimeric HA Binding: RLU [14]: 8580 RLU; Trimeric HA Binding: RLU [15]: 327 RLU; Trimeric HA Binding: RLU [16]: 21400 RLU; Trimeric HA Binding: RLU [17]: 376 RLU
"TCN-523 (5248_A17) (antibody, V domains shown) VH: QVQLVQSGAEVKKPGSSVKVSCKASGGSFSNYAFSWVRQAPGQGLEWMGGTIPLLGTTNYAQKFQGRVTISADQFTSTAYMELGSLRSEDTAVYYCTRRKMTTAFDSWGQGTLVTVSS VL: QPVLTQPPSASASLGASVTLTCTLSSAYSNYKVDWYQQRPGKGPRFVMRVGTGGIVGSKGDGIPDRFSVLGSGLNRYLTIKNIQEEDESDYHCGADHGSGSNFVSPYVFGGGTKLTVL",38 RLU,60 RLU,17700 RLU,25500 RLU,18500 RLU,191 RLU,28 RLU,26400 RLU,80 RLU,10800 RLU,Trimeric HA Binding: RLU [21]: 41 RLU; Trimeric HA Binding: RLU [28]: 51 RLU
"TCN-504 (3251_K17) (antibody, V domains shown) VH: QVQLQESGPGLVKPSETLSLTCAVSGVSISNIDFYWGWIRQPPGKGLEWIGNIYYTGITFYNPSLSSRVAISIDTSKNQFSLTLTSVTAADTAMYYCARHYGDSEAINDAFDIWGQGTMLTVSS VL: EIVMTQSPATLSVSPGERATLSCRASQSVGNSLAWYQQRPGQAPRLLIYGASTRATGIPPRFSGSGSGTEFTLTISSLQTEDFAVYYCQQYINWRPLSFGGGTKVEIK",,29000 RLU,18300 RLU,16100 RLU,16600 RLU,15100 RLU,23800 RLU,21500 RLU,1300 RLU,27800 RLU,Trimeric HA Binding: RLU [29]: 26500 RLU
